Experiments:
[1] = target: spike protein of authentic SARS-COV-2 Omicron BA.5 virus (SARS-CoV-2 Omicron BA.5); experiment: cell-based or functional assay
[2] = target: spike protein of authentic SARS-COV-2 Omicron BA.1 virus (SARS-CoV-2 Omicron BA.1); experiment: cell-based or functional assay
[3] = target: spike protein of authentic SARS-COV-2 Omicron BA.2 virus (SARS-CoV-2 Omicron BA.2); experiment: cell-based or functional assay
[4] = target: spike protein of authentic SARS-COV-2 614G virus (SARS-CoV-2 614G) (UniProt P0DTC2); experiment: cell-based or functional assay
[5] = target: spike protein of authentic SARS-COV-2 Delta virus (SARS-CoV-2 Delta); experiment: cell-based or functional assay
[6] = target: SARS-COV-2 spike [change] trimer ([change]-foldon-His-Strep) (SARS-CoV-2 (Wuhan)) (UniProt P0DTC2)

Substance	GM IC50 in ng/mL (GSD factor), live virus microneutralisation [1]	GM IC50 in ng/mL (GSD factor), live virus microneutralisation [2]	GM IC50 in ng/mL (GSD factor), live virus microneutralisation [3]	GM IC50 in ng/mL (GSD factor), live virus microneutralisation [4]	GM IC50 in ng/mL (GSD factor), live virus microneutralisation [5]	IC50 (read off the curve) [6]
Bebtelovimab Biosimilar (PX-TA1750) (antibody)	2.4 ng/mL	2.5 ng/mL	1.7 ng/mL	3.8 ng/mL	1.6 ng/mL	
CB6 monoclonal antibody						0.05 µg/mL
cilgavimab Biosimilar (PX-TA1033) (antibody)		156 ng/mL	21.2 ng/mL	30.9 ng/mL	28.8 ng/mL	
sotrovimab Biosimilar (PX-TA1637) (antibody)	> 10000 ng/mL	1100 ng/mL	7150 ng/mL	205 ng/mL	141 ng/mL	

Source: patent US20250313611A1
